In paper PMC12089286, “LLPS REDIFINE allows the biophysical characterization of multicomponent condensates without tags or labels”:

Tests used:
Nu(247-419) = Nu(247-419) (SARS-CoV-2, UniProt P0DTC9 247-419); assay: NMR (1D, DOSY); details: protein: recombinant; chain copies: 2; label: none (NMR); 3' Cy5 (microscopy); hairpin
PTBP1 [1] = target: T1, PTBP1 (UniProt P26599 1-557); assay: EMSA; 1.5 mM Mg2+, 100 mM KCl, pH 8.0; EMSA: 20 mM HEPES pH 8.0, 100 mM KCl, 1.5 mM MgCl2, 10% glycerol, 0.5 mM DTT, native 10% TBE gel; NMR: PTBP1 in 10 mM sodium phosphate pH 6.5, 20 mM NaCl; Nu in 20 mM sodium phosphate pH 6.0, 50 mM NaCl; 298 K; details: protein: recombinant; tags: pET28a; label: 5'-32P (EMSA); none (NMR); single-stranded
PTBP1 [2] = target: T1, PTBP1; assay: NMR diffusion (REDIFINE); 1:1 soluble complex; koff 1.41 s-1, kon 3e6 M-1 s-1; 10 mM phosphate pH 6.5, 20 mM NaCl; EMSA: 20 mM HEPES pH 8.0, 100 mM KCl, 1.5 mM MgCl2, 10% glycerol, 0.5 mM DTT, native 10% TBE gel; NMR: PTBP1 in 10 mM sodium phosphate pH 6.5, 20 mM NaCl; Nu in 20 mM sodium phosphate pH 6.0, 50 mM NaCl; 298 K; details: protein: recombinant; tags: pET28a; label: 5'-32P (EMSA); none (NMR); single-stranded

Row | Binder | binding result (Nu(247-419)) | Kd (PTBP1 [1]) | Kd (PTBP1 [2])
1 | GGUUCACCGAGGCCACGCGGAGUACGAUCGAGUGUACAGUGAACC (structured_RNA) [s2m RNA] | binds | – | –
2 | GGGAGAUCUCUAAAAAUCUCUAAAAAUCUCUAAAAA (ssRNA) [3xUCUCU RNA] | – | 490 ± 20 nM | 500 ± 100 nM
